# Source: patent US20210355235A1, “Compositions and Methods For Treating Cancer with Anti-Renalase antibodies and Anti-PD1 antibodies” (YALE UNIVERSITY, priority 2017, published 2021)
# Where two headings read alike, the source gives them in different places.
# Tests used:
# [1] = tested on: renalase-1 and renalase-2; assay: renalase isoform specificity of the antibodies (ELISA / hybridoma screening); format: binding, human; conditions: renalase-1 vs renalase-2
# Protocol: Peptides were used as immunogens. The peptides generated ranged from 9 to 21 amino acids and corresponded to regions of the renalase-1 and renalase-2 proteins. […] Each peptide was conjugated to the adjuvant KLH via the cysteine and used to immunize 6 rabbits. Antiserum collected from each animal was screened for anti-renalase antibody titer by ELISA assay using both the relevant peptide (BSA-conjugate) or full length renalase-1 or 2. The antisera were also tested for their ability to detect endogenous renalase in tissue lysates by western blot. Using these screening criteria the animals producing antibodies with the preferred characteristics were selected. In some examples and for some peptides, several animals produced antibodies with the required specificity. […] Polyclonal antibodies raised against all of the peptides were generated by purification of total IgG from terminal bleeds by protein G chromatography followed by further purification on peptide affinity chromatography. Further and using standard procedures, lymphocytes from the spleens of selected animals were fused to myeloma cells for hybridoma generation. The hybridoma supernatants were screened for binding to both the peptides against which they were raised and secondarily screened against whole renalase protein. Selected hybridomas were sub-cloned and expanded for antibody purification. The monoclonal antibodies were purified from conditioned hybridoma culture supernatant by protein A affinity chromatography.
# [2] = tested on: PDACC (pancreatic ductal adenocarcinoma cells); assay: PDACC viability with anti-RNLS antibodies, WST-1; format: cell-based, human; conditions: 72 hrs
# Protocol: FIG. 25, comprising FIGS. 25A through 25E, is a series of charts and images showing that inhibition of RNLS signaling is cytotoxic to cancer cells in vitro and in vivo. FIG. 25A is a chart showing relative cell viability following transient transfection of Panc1 cells using a RNLS-specific siRNA, or a non-specific control siRNA, and cell viability assayed 96 h later using the WST-1 reagent; n=6, ** indicates p<0.001. FIG. 25B is a chart showing relative cell viability when cells were treated with indicated antibodies for 72 hrs and cell viability determined using WST-1; m28-RNLS and m37-RNLS: monoclonal antibodies raised against RNLS peptide RP220, ab31291: Abcam polyclonal antibody raised against a partial sequence of RP-220; n=6, * indicates p<0.005. […] FIG. 25D is a chart showing tumor volume increase after athymic nude mice received subcutaneous injection of Panc1 cells transduced with RNLS shRNA (sh-RNLS) or control (sh-Control); tumor volume measured every […] for up to 30 days, n=6 each; * indicates p<0.05. FIG. 25E is chart showing tumor volume increase after nude mice were xenografted with BxPC3; tumor volume measured prior to treatment every 3-4 days with 2 mg/kg of either rabbit IgG as a negative control or with m28-RNLS, n=10, * indicates p<0.05.
# Cell viability was assessed by trypan blue exclusion, and cells were counted using a BioRad TC10 automated counter.
# [3] = tested on: melanoma cell lines; assay: melanoma cells in culture, viability / growth; format: cell-based, human
# Protocol: Total cell number and percentage of live cells were assessed by trypan blue exclusion, and cells were counted using a BioRad TC10 automated cell counter. For additional studies, cell viability was determined using WST-1 reagent (Roche Diagnostics, Indianapolis, Ind., USA) according to the manufacturers' instruction. Absorbances were read using a microplate reader (Power Waves XS, BioTek Instruments, Winooski, Vt., USA).
molecule,measurement,setting,value
"m37-RNLS: rabbit anti-renalase monoclonal raised against RP-220; heavy chain SEQ ID NO:17, light chain SEQ ID NO:18 (antibody, 1D-37-10 full length heavy chain amino acid; 1D-37-10 full length light chain amino acid) heavy: METGLRWLLLVAVLKGVQCQSVEESGGRLVTPGGSLTLTCTVSGFSLSDYAIIWVRQAPGKGLEYIAIIGSSGDTFYATWAKGRFTISKTSTTVDLKMTSLTAADTATYFCAPRYAGTTDYHDAFDPWGPGTLVTVSSGQPKAPSVFPLAPCCGDTPSSTVTLGCLVKGYLPEPVTVTWNSGTLTNGVRTFPSVRQSSGLYSLSSVVSVTSSSQPVTCNVAHPATNTKVDKTVAPSTCSKPTCPPPELLGGPSVFIFPPKPKDTLMISRTPEVTCVVVDVSQDDPEVQFTWYINNEQVRTARPPLREQQFNSTIRVVSTLPIAHQDWLRGKEFKCKVHNKALPAPIEKTISKARGQPLEPKVYTMGPPREELSSRSVSLTCMINGFYPSDISVEWEKNGKAEDNYKTTPAVLDSDGSYFLYSKLSVPTSEWQRGDVFTCSVMHEALHNHYTQKSISRSPGK light: MDTRAPTQLLGLLLLWLPGARCAEVVMTQTPASMEAPMGGTVTIKCQASQNIYNYLSWYQQKPGQPPKLLVYKASTLTSGVPSRFKGSGSGTQFTLTISDLECADAATYYCQINYSIYNHYNIIFGGGTEVVVKGDPVAPTVLIFPPSADLVATGTVTIVCVANKYFPDVTVTWEVDGTTQTTGIENSKTPQNSADCTYNLSSTLTLTSTQYNSHKEYTCKVTQGTTSVVQSFNRGDC",renalase-type specificity,[1],recognize renalase-1 and renalase-2
same,PDACC growth / viability,[2],inhibitory effects
same,melanoma cell viability / growth in culture,[3],decreased the viability of all (total of 5) melanoma cell lines tested
same,melanoma cell viability / growth in culture,[3]; listed as 1D-37-10,inhibit melanoma cells in culture
same,melanoma cell viability / growth in culture,[3]; listed as D-37-10,inhibit melanoma cell growth
"1F-26-1: anti-renalase monoclonal specific for renalase-1; heavy chain SEQ ID NO:25, light chain SEQ ID NO:26 (antibody, 1F-26-1 full length heavy chain amino acid; 1F-26-1 full length light chain amino acid) heavy: METGLRWLLLVAVLKGVQCQSVKESEGGLFKPTDTLTLTCTVSGFSLSSYGVTWVRQAPGNGLEWIGLIGDRGTTFYASWAKSRSTITRNTNLNTVTLKMTRLTAADTATYFCARGSGYGARIWGPGTLVTVSSWQPKAPSVFPLAPCCGDTPSSTVTLGCLVKGYLPEPVTVTWNSGTLTNGVRTFPSVRQSSGLYSLSSVVSVTSSSQPVTCNVAHPATNTKVDKTVAPSTCSKPTCPPPELLGGPSVFIFPPKPKDTLMISRTPEVTCVVVDVSQDDPEVQFTWYINNEQVRTARPPLREQQFNSTIRVVSTLPIAHQDWLRGKEFKCKVHNKALPAPIEKTISKARGQPLEPKVYTMGPPREELSSRSVSLTCMINGFYPSDISVEWEKNGKAEDNYKTTPAVLDSDGSYFLYSKLSVPTSEWQRGDVFTCSVMHEALHNHYTQKSISRSPGK light: MDTRAPTQLLGLLLLWLPGATFAQVLTQTPSPVSAAVGGTVTINCQSSQSVYKNNYLAWYQQKPGQPPKLLIYETSKLASGVPPRFSGSGSGTQFTLTISSVQCDDAATYYCQGGYSGVDFMAFGGGTEVVVKGDPVAPTVLIFPPSADLVATGTVTIVCVANKYFPDVTVTWEVDGTTQTTGIENSKTPQNSADCTYNLSSTLTLTSTQYNSHKEYTCKVTQGTTSVVQSFNRGDC",renalase-type specificity,[1],specific for renalase-1
"1F-42-7: anti-renalase monoclonal specific for renalase-1; heavy chain SEQ ID NO:33, light chain SEQ ID NO:34 (antibody, 1F-42-7 full length heavy chain amino acid; 1F-42-7 full length light chain amino acid) heavy: METGLRWLLLVAVLKGVQCQSVKESEGGLFKPTDTLTLTCTVSGFSLTTYGVTWVRQAPGNGLEWIGLIGDRGTTYYASWVNGRSTITRNTNLNTVTLKMTRLTAADTATYFCARGSGYGARIWGPGTLVTVASWQPKAPSVFPLAPCCGDTPSSTVTLGCLVKGYLPEPVTVTWNSGTLTNGVRTFPSVRQSSGLYSLSSVVSVTSSSQPVTCNVAHPATNTKVDKTVAPSTCSKPTCPPPELLGGPSVFIFPPKPKDTLMISRTPEVTCVVVDVSQDDPEVQFTWYINNEQVRTARPPLREQQFNSTIRVVSTLPIAHQDWLRGKEFKCKVHNKALPAPIEKTISKARGQPLEPKVYTMGPPREELSSRSVSLTCMINGFYPSDISVEWEKNGKAEDNYKTTPAVLDSDGSYFLYSKLSVPTSEWQRGDVFTCSVMHEALHNHYTQKSISRSPGK light: MDTRAPTQLLGLLLLWLPGATFAQVLTQTPSPMSAALGGTVTINCQSSQTVYNNNYLSWYQQKPGQPPKLLIYETSKLSSGVPPRFSGSGSGTQFTLTISSVQCDDAATYYCQGGYSGVDFMAFGGGTEVVVKGDPVAPTVLIFPPSADLVATGTVTIVCVANKYFPDVTVTWEVDGTTQTTGIENSKTPQNSADCTYNLSSTLTLTSTQYNSHKEYTCKVTQGTTSVVQSFNRGDC",renalase-type specificity,[1],specific for renalase-1
"3A-5-2: anti-renalase monoclonal specific for renalase-2; heavy chain SEQ ID NO:41, light chain SEQ ID NO:42 (antibody, 3A-5-2 full length heavy chain amino acid; 3A-5-2 full length light chain amino acid) heavy: METGLRWLLLVAVLKGVQCQSLEESGGRLVTPGTPLTLTCTVSGFSLNNYHIYWVRQAPGKGLEYIGIIFNGGTYYARWTKGRFTISKTSTTVDLKMTSLTTEDTATYFCARGDGIWGPGTLVTVSLGQPKAPSVFPLAPCCGDTPSSTVTLGCLVKGYLPEPVTVTWNSGTLTNGVRTFPSVRQSSGLYSLSSVVSVTSSSQPVTCNVAHPATNTKVDKTVAPSTCSKPTCPPPELLGGPSVFIFPPKPKDTLMISRTPEVTCVVVDVSQDDPEVQFTWYINNEQVRTARPPLREQQFNSTIRVVSTLPIAHQDWLRGKEFKCKVHNKALPAPIEKTISKARGQPLEPKVYTMGPPREELSSRSVSLTCMINGFYPSDISVEWEKNGKAEDNYKTTPAVLDSDGSYFLYSKLSVPTSEWQRGDVFTCSVMHEALHNHYTQKSISRSPGK light: MDTRAPTQLLGLLLLWLPGATFAQVLTQTPASVSAAVGGTVTINCQASQSVFNNNYLAWYQQKPGQPPKRLIYSASTLASGVSSRFKGSGSGTEFTLTMSGVECDDAATYYCAGSFDCNSGDCVAFGGGTEVVVKGDPVAPTVLIFPPAADQVATGTVTIVCVANKYFPDVTVTWEVDGTTQTTGIENSKTPQNSADCTYNLSSTLTLTSTQYNSHKEYTCKVTQGTTSVVQSFNRGDC",renalase-type specificity,[1],specific for renalase-2
